Results taken from patent publication US20050069911A1.
Where no end group is shown, it is not given here.

Key:
antibody C1 [1] = assay: peptide competition ELISA; free peptide competes with immobilized target peptide for C1
antibody C1 [2] = assay: peptide competition ELISA (Example 5): the free peptide, in rising concentration, competes with the plate-bound target peptide for antibody C1; HRP-labelled secondary antibody, absorbance at 450
antibody P1 [3] = assay: peptide competition ELISA; free peptide against immobilized target peptide for P1
antibody P1 [4] = assay: peptide competition ELISA
antibody C1 [5] = assay: peptide competition ELISA
antibody C1 [6] = assay: peptide competition ELISA; free peptide against immobilized target peptide for C1
antibody P1 [7] = assay: peptide competition ELISA (Example 5): the free peptide, in rising concentration, competes with the plate-bound target peptide for antibody P1; HRP-labelled secondary antibody, absorbance at 450
antibody P1 [8] = assay: peptide competition ELISA; free peptide competes with immobilized target peptide for P1

IC50 (antibody P1 [3]) [µM]	fold higher concentration without competition, against the antigen PET EPAELTDA (antibody P1 [4]) [fold]	fold higher concentration without competition, against the antigen PET YEVQGEVF (antibody C1 [5]) [fold]	IC50 (antibody C1 [6]) [µM]	Binder	further results
				YEVQGEVF [CRP-derived 8-mer PET peptide YEVQGEVF]	IC50 (antibody C1 [1]): 1 µM; IC50 (read off the curve) (antibody C1 [2]): 0.9 µM
> 1000	25000			DPTQLTDA [nearest-neighbor 8-mer peptide DPTQLTDA]	
		> 1000	> 1000	VEVNGEVF [nearest-neighbor 8-mer peptide VEVNGEVF]	
		> 1000	> 1000	YEVLGEEF [nearest-neighbor 8-mer peptide YEVLGEEF]	
> 1000	25000			EPVELTSA [nearest-neighbor 8-mer peptide EPVELTSA]	
				EPAELTDA (not fully specified) [PSA-derived 8-mer PET peptide EPAELTDA]	IC50 (read off the curve) (antibody P1 [7]): 0.09 µM; IC50 (antibody P1 [8]): 0.04 µM
